Source: article PMC9198467 (The Journal of Biological Chemistry, 2022)

Biological target: His-DnaB helicase (E. coli, UniProt P0ACB0 1-471)
Assay: pull-down

Chain of His-DnaB helicase (P0ACB0 whole entry): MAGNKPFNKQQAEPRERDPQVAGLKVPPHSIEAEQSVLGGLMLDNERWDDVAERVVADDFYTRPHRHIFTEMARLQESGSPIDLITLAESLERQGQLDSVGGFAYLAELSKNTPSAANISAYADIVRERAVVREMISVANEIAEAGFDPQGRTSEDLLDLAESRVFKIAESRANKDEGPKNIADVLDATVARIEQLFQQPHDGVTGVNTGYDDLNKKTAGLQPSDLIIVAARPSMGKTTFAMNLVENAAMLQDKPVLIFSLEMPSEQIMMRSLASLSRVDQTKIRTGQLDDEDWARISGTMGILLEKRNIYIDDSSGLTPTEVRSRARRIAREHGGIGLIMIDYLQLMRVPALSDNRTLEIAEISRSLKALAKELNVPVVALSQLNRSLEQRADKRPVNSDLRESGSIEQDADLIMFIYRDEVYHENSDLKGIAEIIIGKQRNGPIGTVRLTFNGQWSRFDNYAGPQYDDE

B1: Escherichia coli DnaA, ATP-bound form (ATP–DnaA), wild type (natural protein, E. coli, UniProt P03004 1-467, looked up)
chain: MSLSLWQQCLARLQDELPATEFSMWIRPLQAELSDNTLALYAPNRFVLDWVRDKYLNNINGLLTSFCGADAPQLRFEVGTKPVTQTPQAAVTSNVAAPAQVAQTQPQRAAPSTRSGWDNVPAPAEPTYRSNVNVKHTFDNFVEGKSNQLARAAARQVADNPGGAYNPLFLYGGTGLGKTHLLHAVGNGIMARKPNAKVVYMHSERFVQDMVKALQNNAIEEFKRYYRSVDALLIDDIQFFANKERSQEEFFHTFNALLEGNQQIILTSDRYPKEINGVEDRLKSRFGWGLTVAIEPPELETRVAILMKKADENDIRLPGEVAFFIAKRLRSNVRELEGALNRVIANANFTGRAITIDFVREALRDLLALQEKLVTIDNIQKTVAEYYKIKVADLLSKRRSRSVARPRQMAMALAKELTNHSLPEIGDAFGGRDHTTVLHACRKIEQLREESHDIKEDFSNLIRTLSS
  binding result: binds
